According to patent US20230181748A1 (published 2023):
Where two headings read alike, the source gives them in different places. Non-standard residues stand in square brackets, D forms with d. No end group written: not given here. pomalidomide = small molecule targeting Cereblon, fused after the C-terminal end; Hyp = O=C(O)[C@@H]1C[C@@H](O)CN1

Experiments:
Assay in all cases: MST
[1] = target: T1, atto-633-labeled preformed tau aggregates (UniProt P10636 1-441, atto-633 label, site not stated)
[2] = target: atto-633-labeled tau monomers (UniProt P10636 1-441, atto-633 label, site not stated)
[3] = target: preformed, sonicated Aβ aggregates (UniProt P05067 672-713)
[4] = target: T1, atto-633-labeled preformed tau …; remark: listed apart in the source
[5] = target: T1, atto-633-labeled preformed tau …; remark: listed apart in the source

Sequence of preformed, sonicated Aβ aggregates (P05067 672-713): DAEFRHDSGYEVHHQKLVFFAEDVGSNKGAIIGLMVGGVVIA
T1 sequence (P10636 other isoform, or with tags, fused parts or gaps): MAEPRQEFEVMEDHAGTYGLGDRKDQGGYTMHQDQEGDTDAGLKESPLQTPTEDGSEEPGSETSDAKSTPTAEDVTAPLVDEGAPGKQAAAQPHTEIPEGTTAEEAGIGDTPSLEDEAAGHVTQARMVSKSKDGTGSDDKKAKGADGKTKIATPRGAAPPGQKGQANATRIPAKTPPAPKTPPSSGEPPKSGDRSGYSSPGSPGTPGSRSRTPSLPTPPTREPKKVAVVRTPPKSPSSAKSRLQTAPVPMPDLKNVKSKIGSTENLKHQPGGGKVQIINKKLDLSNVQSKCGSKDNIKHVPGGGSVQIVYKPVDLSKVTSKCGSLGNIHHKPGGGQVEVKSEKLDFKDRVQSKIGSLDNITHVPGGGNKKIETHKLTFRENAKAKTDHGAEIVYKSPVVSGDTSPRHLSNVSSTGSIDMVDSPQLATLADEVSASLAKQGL
Sequence of atto-633-labeled tau monomers (P10636 other isoform, or with tags, fused parts or gaps): as above

WQIVYKGSVWMINK-pomalidomide (also: pomalidomide link chemistry not described) [HET-pomalidomide]
Kd [1]: 4.8 µM | Kd [2]: ~10.9 µM

MVWGVVGSKLWFFA [AbCap_3]
Kd [3]: 4.94 µM | Kd [4]: 4.65 µM

MVWGVVGSKWVFFA [AbCap_4]
Kd [3]: 1.55 µM

WQIVYKGSVWMINKGSGSALA[Hyp]YIP [HET fused to the VHL-moiety]
Kd [5]: 3.3 µM

WQIVYKGSVWMINK [HET]
Kd [5]: ~3.3 µM

GWVVIAGSKLKFFA [AbCap_19]
Kd [3]: 6.08 µM

WQIVYKGSVWMINKGSGSNLLRLTGW [HET_JAV]
Kd [1]: 2.2 µM
